Target: the molecule itself
Experiment: non-reducing vs reducing SDS PAGE, subunit self-association (disulfide cross-link)
Method: In order to observe the disulfide bonding of lysine decarboxylase mutant strain, the protein sizes when reducing power was applied and not applied to wild type lysine decarboxylase LdcI (SEQ ID NO: 15) and the mutant strain wherein phenylalanine at position 14 is substituted with cysteine, and lysine at position 44 is substituted with cysteine (F14C/K44C, SEQ ID NO: 6) were measured with SDS PAGE. Such a measurement can confirm whether a shared bond is formed between sulfur elements in a form —S—S— wherein two SH groups added to the mutant strain are producing in oxidation. In a reducing SDS PAGE, reducing power is applied to both of the wild type and the mutant strain to break all disulfides where bonding is possible, and then the sizes are observed, and in non-reducing SDS PAGE, it was observed whether disulfide bond is formed.

B1: lysine decarboxylase LdcI mutant strain wherein phenylalanine at position 14 is substituted with cysteine, and lysine at position 44 is substituted with … (enzyme)
chain: MNVIAILNHMGVYCKEEPIRELHRALERLNFQIVYPNDRDDLLCLIENNARLCGVIFDWDKYNLELCEEISKMNENLPLYAFANTYSTLDVSLNDLRLQISFFEYALGAAEDIANKIKQTTDEYINTILPPLTKALFKYVREGKYTFCTPGHMGGTAFQKSPVGSLFYDFFGPNTMKSDISISVSELGSLLDHSGPHKEAEQYIARVFNADRSYMVTNGTSTANKIVGMYSAPAGSTILIDRNCHKSLTHLMMMSDVTPIYFRPTRNAYGILGGIPQSEFQHATIAKRVKETPNATWPVHAVITNSTYDGLLYNTDFIKKTLDVKSIHFDSAWVPYTNFSPIYEGKCGMSGGRVEGKVIYETQSTHKLLAAFSQASMIHVKGDVNEETFNEAYMMHTTTSPHYGIVASTETAAAMMKGNAGKRLINGSIERAIKFRKEIKRLRTESDGWFFDVWQPDHIDTTECWPLRSDSTWHGFKNIDNEHMYLDPIKVTLLTPGMEKDGTMSDFGIPASIVAKYLDEHGIVVEKTGPYNLLFLFSIGIDKTKALSLLRALTDFKRAFDLNLRVKNMLPSLYREDPEFYENMRIQELAQNIHKLIVHHNLPDLMYRAFEVLPTMVMTPYAAFQKELHGMTEEVYLDEMVGRINANMILPYPPGVPLVMPGEMITEESRPVLEFLQMLCEIGAHYPGFETDIHGAYRQADGRYTVKVLKEESKK
modifications: disulfide bond between the introduced cysteines (positions 14 and 44) of neighbouring subunits
notes: Purified enzyme; also called F14C/K44C; F14C/K44C mutant strain
binding result: binds

Source: patent US20180291362A1 (SEOUL NATIONAL UNIVERSITY R AND DB FOUNDATION, published 2018)
